In IntAct's records for PubMed 35512704:

B1: Speckle-type POZ protein (Homo sapiens), O43791 (parent)
chain: MSRVPSPPPPAEMSSGPVAESWCYTQIKVVKFSYMWTINNFSFCREEMGEVIKSSTFSSGANDKLKWCLRVNPKGLDEESKDYLSLYLLLVSCPKSEVRAKFKFSILNAKGEETKAMESQRAYRFVQGKDWGFKKFIRRDFLLDEANGLLPDDKLTLFCEVSVVQDSVNISGQNTMNMVKVPECRLADELGGLWENSRFTDCCLCVAGQEFQAHKAILAARSPVFSAMFEHEMEESKKNRVEINDVEPEVFKEMMCFIYTGKAPNLDKMADDLLAAADKYALERLKVMCEDALCSNLSVENAAEILILADLHSADQLKTQAVDFINYHASDVLETSGWKSMVVSHPHLVAEAYRSLASAQCPFLGPPRKRLKQS
partner: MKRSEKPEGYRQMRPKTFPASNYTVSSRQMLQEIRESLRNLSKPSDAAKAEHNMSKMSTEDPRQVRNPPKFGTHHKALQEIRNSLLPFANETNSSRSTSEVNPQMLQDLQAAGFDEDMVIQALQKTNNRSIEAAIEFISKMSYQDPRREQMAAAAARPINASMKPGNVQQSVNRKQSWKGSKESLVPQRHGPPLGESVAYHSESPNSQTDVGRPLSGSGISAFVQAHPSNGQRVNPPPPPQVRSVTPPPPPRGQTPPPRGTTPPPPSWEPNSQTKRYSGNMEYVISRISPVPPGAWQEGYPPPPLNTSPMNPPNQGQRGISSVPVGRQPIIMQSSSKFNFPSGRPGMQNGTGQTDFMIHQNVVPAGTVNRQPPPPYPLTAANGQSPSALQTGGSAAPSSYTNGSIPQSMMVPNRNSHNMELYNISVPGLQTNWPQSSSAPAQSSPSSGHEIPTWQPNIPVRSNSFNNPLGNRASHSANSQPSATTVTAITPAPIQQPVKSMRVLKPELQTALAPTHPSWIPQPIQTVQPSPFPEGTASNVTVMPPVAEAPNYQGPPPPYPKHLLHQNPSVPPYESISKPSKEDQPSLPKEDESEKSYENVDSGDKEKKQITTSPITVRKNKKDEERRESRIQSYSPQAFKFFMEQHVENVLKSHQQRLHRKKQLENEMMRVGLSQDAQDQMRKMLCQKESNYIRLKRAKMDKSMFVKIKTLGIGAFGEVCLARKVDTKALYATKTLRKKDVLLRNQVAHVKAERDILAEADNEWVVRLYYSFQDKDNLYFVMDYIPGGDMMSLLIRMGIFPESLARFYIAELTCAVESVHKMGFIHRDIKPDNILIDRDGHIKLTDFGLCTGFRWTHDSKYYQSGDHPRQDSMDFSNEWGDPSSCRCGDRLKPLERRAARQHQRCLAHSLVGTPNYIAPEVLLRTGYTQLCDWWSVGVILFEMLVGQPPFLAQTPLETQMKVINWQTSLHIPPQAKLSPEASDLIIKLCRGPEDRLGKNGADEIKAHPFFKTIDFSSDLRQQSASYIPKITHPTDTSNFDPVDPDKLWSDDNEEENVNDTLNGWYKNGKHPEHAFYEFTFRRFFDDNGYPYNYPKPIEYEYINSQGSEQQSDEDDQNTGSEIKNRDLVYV
B2: Speckle-type POZ protein (Homo sapiens), O43791 (parent)
chain: B1 chain
partner: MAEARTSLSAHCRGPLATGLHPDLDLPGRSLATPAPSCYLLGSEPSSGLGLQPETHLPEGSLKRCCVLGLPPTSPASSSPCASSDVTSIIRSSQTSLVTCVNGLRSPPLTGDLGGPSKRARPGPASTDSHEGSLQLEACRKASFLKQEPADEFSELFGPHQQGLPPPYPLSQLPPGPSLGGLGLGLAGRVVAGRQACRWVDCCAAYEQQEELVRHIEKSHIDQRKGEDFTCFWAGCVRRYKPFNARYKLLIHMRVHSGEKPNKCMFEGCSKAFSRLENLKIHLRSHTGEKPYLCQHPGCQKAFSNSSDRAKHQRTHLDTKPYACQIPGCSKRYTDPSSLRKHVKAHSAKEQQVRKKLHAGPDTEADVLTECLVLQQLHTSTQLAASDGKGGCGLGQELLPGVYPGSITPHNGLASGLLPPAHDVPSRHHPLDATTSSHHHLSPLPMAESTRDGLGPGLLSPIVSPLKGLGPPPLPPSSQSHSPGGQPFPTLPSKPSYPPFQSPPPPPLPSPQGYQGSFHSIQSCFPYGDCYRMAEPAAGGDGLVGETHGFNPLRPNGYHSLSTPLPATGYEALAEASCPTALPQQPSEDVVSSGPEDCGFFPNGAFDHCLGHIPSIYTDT
B3: Speckle-type POZ protein (Homo sapiens), O43791 (parent)
chain: B1 chain
partner: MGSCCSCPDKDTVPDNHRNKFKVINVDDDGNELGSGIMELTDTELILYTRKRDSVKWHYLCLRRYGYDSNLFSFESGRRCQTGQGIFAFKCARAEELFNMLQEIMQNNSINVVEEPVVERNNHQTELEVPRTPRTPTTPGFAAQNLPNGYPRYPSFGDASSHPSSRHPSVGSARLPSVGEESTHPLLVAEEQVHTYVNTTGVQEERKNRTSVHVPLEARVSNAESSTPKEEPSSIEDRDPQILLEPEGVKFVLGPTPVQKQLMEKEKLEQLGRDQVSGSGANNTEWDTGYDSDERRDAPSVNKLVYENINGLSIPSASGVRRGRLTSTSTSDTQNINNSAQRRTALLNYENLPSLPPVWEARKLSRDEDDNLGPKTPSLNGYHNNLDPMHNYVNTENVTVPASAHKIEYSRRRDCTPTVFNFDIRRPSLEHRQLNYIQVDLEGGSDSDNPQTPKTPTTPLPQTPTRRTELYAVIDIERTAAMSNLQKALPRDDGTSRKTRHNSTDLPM
B4: Speckle-type POZ protein (Homo sapiens), O43791 (parent)
chain: B1 chain
partner: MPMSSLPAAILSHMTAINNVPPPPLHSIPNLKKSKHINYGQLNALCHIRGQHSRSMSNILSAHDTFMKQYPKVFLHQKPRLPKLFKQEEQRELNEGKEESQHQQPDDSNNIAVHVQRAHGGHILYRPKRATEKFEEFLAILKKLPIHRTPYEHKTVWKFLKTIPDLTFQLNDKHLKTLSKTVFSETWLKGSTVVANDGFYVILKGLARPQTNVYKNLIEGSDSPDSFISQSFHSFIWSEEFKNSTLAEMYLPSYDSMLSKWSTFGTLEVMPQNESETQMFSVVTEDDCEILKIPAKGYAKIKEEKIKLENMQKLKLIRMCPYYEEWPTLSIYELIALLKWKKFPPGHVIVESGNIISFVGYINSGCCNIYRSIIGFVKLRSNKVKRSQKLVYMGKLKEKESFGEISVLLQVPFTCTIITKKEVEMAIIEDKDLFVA

Variants of: B1
Settings: with lats1_human LATS1, O95835

Row | effect of a mutation on the interaction | Variant
1 | with no effect | MSRVPSPPPPAEMSSGPVAESWCYTQIKVVKFSYMWTINNFSFCREEMGEVIKSSTFSSGANDKLKWCLRVNPKGLDEESKDYLSLYLLLVSCPKSEVRAKFKFSILNAKGEETKAMESQRAYRFVQGKDWGLKKFIRRDFLLDEANGLLPDDKLTLFCEVSVVQDSVNISGQNTMNMVKVPECRLADELGGLWENSRFTDCCLCVAGQEFQAHKAILAARSPVFSAMFEHEMEESKKNRVEINDVEPEVFKEMMCFIYTGKAPNLDKMADDLLAAADKYALERLKVMCEDALCSNLSVENAAEILILADLHSADQLKTQAVDFINYHASDVLETSGWKSMVVSHPHLVAEAYRSLASAQCPFLGPPRKRLKQS [F133L]

Variants of: B1
Settings: with lats1_human LATS1, O95835
Remark: another data set of the same source

Row | effect of a mutation on the interaction | Variant
2 | with no effect | MSRVPSPPPPAEMSSGPVAESWCYTQIKVVKFSYMWTINNFSFCREEMGEVIKSSTFSSGANDKLKWCLRVNPKGLDEESKDYLSLYLLLVSCPKSEVRAKFKFSILNAKGEETKAMESQRAYRFVQGKDWGVKKFIRRDFLLDEANGLLPDDKLTLFCEVSVVQDSVNISGQNTMNMVKVPECRLADELGGLWENSRFTDCCLCVAGQEFQAHKAILAARSPVFSAMFEHEMEESKKNRVEINDVEPEVFKEMMCFIYTGKAPNLDKMADDLLAAADKYALERLKVMCEDALCSNLSVENAAEILILADLHSADQLKTQAVDFINYHASDVLETSGWKSMVVSHPHLVAEAYRSLASAQCPFLGPPRKRLKQS [F133V]

Variants of: B1
Settings: with lats1_human LATS1, O95835
Remark: another data set of the same source

Row | effect of a mutation on the interaction | Variant
3 | with no effect | MSRVPSPPPPAEMSSGPVAESWCYTQIKVVKFSYMWTINNFSFCREEMGEVIKSSTFSSGANDKLKWCLRVNPKGLDEESKDYLSLCLLLVSCPKSEVRAKFKFSILNAKGEETKAMESQRAYRFVQGKDWGFKKFIRRDFLLDEANGLLPDDKLTLFCEVSVVQDSVNISGQNTMNMVKVPECRLADELGGLWENSRFTDCCLCVAGQEFQAHKAILAARSPVFSAMFEHEMEESKKNRVEINDVEPEVFKEMMCFIYTGKAPNLDKMADDLLAAADKYALERLKVMCEDALCSNLSVENAAEILILADLHSADQLKTQAVDFINYHASDVLETSGWKSMVVSHPHLVAEAYRSLASAQCPFLGPPRKRLKQS [Y87C]

Variants of: B2
Settings: with glis1_human GLIS1, Q8NBF1

Row | effect of a mutation on the interaction | Variant
4 | with no effect | MSRVPSPPPPAEMSSGPVAESWCYTQIKVVKFSYMWTINNFSFCREEMGEVIKSSTFSSGANDKLKWCLRVNPKGLDEESKDYLSLCLLLVSCPKSEVRAKFKFSILNAKGEETKAMESQRAYRFVQGKDWGFKKFIRRDFLLDEANGLLPDDKLTLFCEVSVVQDSVNISGQNTMNMVKVPECRLADELGGLWENSRFTDCCLCVAGQEFQAHKAILAARSPVFSAMFEHEMEESKKNRVEINDVEPEVFKEMMCFIYTGKAPNLDKMADDLLAAADKYALERLKVMCEDALCSNLSVENAAEILILADLHSADQLKTQAVDFINYHASDVLETSGWKSMVVSHPHLVAEAYRSLASAQCPFLGPPRKRLKQS [Y87C]

Variants of: B2
Settings: with glis1_human GLIS1, Q8NBF1
Remark: another data set of the same source

Row | effect of a mutation on the interaction | Variant
5 | with no effect | MSRVPSPPPPAEMSSGPVAESWCYTQIKVVKFSYMWTINNFSFCREEMGEVIKSSTFSSGANDKLKWCLRVNPKGLDEESKDYLSLYLLLVSCPKSEVRAKFKFSILNAKGEETKAMESQRAYRFVQGKDWGLKKFIRRDFLLDEANGLLPDDKLTLFCEVSVVQDSVNISGQNTMNMVKVPECRLADELGGLWENSRFTDCCLCVAGQEFQAHKAILAARSPVFSAMFEHEMEESKKNRVEINDVEPEVFKEMMCFIYTGKAPNLDKMADDLLAAADKYALERLKVMCEDALCSNLSVENAAEILILADLHSADQLKTQAVDFINYHASDVLETSGWKSMVVSHPHLVAEAYRSLASAQCPFLGPPRKRLKQS [F133L]

Variants of: B3
Settings: with frs2_human FRS2, Q8WU20

Row | effect of a mutation on the interaction | Variant
6 | with no effect | MSRVPSPPPPAEMSSGPVAESWCYTQIKVVKFSYMWTINNFSFCREEMGEVIKSSTFSSGANDKLKWCLRVNPKGLDEESKDYLSLYLLLVSCPKSEVRAKFKFSILNAKGEETKAMESQRAYRFVQGKDWGLKKFIRRDFLLDEANGLLPDDKLTLFCEVSVVQDSVNISGQNTMNMVKVPECRLADELGGLWENSRFTDCCLCVAGQEFQAHKAILAARSPVFSAMFEHEMEESKKNRVEINDVEPEVFKEMMCFIYTGKAPNLDKMADDLLAAADKYALERLKVMCEDALCSNLSVENAAEILILADLHSADQLKTQAVDFINYHASDVLETSGWKSMVVSHPHLVAEAYRSLASAQCPFLGPPRKRLKQS [F133L]

Variants of: B3
Settings: with frs2_human FRS2, Q8WU20
Remark: another data set of the same source

Row | effect of a mutation on the interaction | Variant
7 | with no effect | MSRVPSPPPPAEMSSGPVAESWCYTQIKVVKFSYMWTINNFSFCREEMGEVIKSSTFSSGANDKLKWCLRVNPKGLDEESKDYLSLYLLLVSCPKSEVRAKFKFSILNAKGEETKAMESQRAYRFVQGKDWGVKKFIRRDFLLDEANGLLPDDKLTLFCEVSVVQDSVNISGQNTMNMVKVPECRLADELGGLWENSRFTDCCLCVAGQEFQAHKAILAARSPVFSAMFEHEMEESKKNRVEINDVEPEVFKEMMCFIYTGKAPNLDKMADDLLAAADKYALERLKVMCEDALCSNLSVENAAEILILADLHSADQLKTQAVDFINYHASDVLETSGWKSMVVSHPHLVAEAYRSLASAQCPFLGPPRKRLKQS [F133V]

Variants of: B4
Settings: with cnbd1_human CNBD1, Q8NA66

Row | effect of a mutation on the interaction | Variant
8 | with no effect | MSRVPSPPPPAEMSSGPVAESWCYTQIKVVKFSYMWTINNFSFCREEMGEVIKSSTFSSGANDKLKWCLRVNPKGLDEESKDYLSLCLLLVSCPKSEVRAKFKFSILNAKGEETKAMESQRAYRFVQGKDWGFKKFIRRDFLLDEANGLLPDDKLTLFCEVSVVQDSVNISGQNTMNMVKVPECRLADELGGLWENSRFTDCCLCVAGQEFQAHKAILAARSPVFSAMFEHEMEESKKNRVEINDVEPEVFKEMMCFIYTGKAPNLDKMADDLLAAADKYALERLKVMCEDALCSNLSVENAAEILILADLHSADQLKTQAVDFINYHASDVLETSGWKSMVVSHPHLVAEAYRSLASAQCPFLGPPRKRLKQS [Y87C]
